Assay results from patent US20240343803A1 (SHANDONG SIMCERE BIOPHARMACEUTICAL, published 2024).

T1: human PVRIG on FlpinCHO-PVRIG cells (human, UniProt Q6DKI7 41-326)
T1 construct: whole, on cells; also called FlpinCHO-hPVRIG; FlpinCHO-human PVRIG
T1 sequence (looked up): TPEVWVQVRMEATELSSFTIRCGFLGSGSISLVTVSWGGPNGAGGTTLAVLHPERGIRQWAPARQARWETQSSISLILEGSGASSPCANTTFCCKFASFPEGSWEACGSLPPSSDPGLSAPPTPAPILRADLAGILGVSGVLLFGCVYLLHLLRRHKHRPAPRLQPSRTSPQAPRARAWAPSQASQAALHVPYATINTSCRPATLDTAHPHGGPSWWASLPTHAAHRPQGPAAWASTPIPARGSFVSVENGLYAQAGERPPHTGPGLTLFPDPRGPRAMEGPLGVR

T2: full-length human TIGIT on CHO-K1 cells (CHO-K1 human TIGIT) (human, UniProt Q495A1 22-244)
T2 construct: NCBI XP_024309156.1; entry includes the signal peptide; also called high expression strain 1D2; medium expression strain 2D10
T2 sequence: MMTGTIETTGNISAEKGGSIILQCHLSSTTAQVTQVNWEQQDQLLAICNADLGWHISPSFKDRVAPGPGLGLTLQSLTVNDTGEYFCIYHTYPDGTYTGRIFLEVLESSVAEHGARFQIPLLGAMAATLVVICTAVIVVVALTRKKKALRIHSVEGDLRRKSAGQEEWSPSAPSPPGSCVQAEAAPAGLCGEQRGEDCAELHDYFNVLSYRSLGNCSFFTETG

T3: human TIGIT ECD-mFc (fusion protein of extracellular domain of human TIGIT and mouse IgG2a Fc fragment) (human)
T3 chain: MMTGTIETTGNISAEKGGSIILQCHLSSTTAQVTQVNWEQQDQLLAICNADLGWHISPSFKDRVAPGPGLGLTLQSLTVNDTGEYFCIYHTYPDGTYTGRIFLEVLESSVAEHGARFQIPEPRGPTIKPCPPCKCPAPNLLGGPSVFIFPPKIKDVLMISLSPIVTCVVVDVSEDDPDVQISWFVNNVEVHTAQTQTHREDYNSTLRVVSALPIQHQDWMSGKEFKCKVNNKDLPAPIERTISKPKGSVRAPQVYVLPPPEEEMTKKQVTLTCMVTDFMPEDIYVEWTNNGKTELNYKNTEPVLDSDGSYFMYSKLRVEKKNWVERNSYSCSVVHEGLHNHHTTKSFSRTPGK


Columns and labels:
[1] = target: T1, human PVRIG on FlpinCHO-PVRIG cells; experiment: FACS, FlpinCHO-PVRIG cells
Protocol: After discarding the cell culture medium, the cells were rinsed with PBS and digested for 8-10 minutes by adding 1 mL Versene (Gibico, 15040-066). The Ham's F12 (Gibico, 21127-022) complete medium containing 10% FBS was then added to terminate the digestion and acquire cell suspension. After counting with a cell counter (Beckman Coulter, Vi-CELL), an appropriate amount of cell suspension was centrifuged at 350×g to remove the supernatant, washed twice with PBS, stained with Zombie violet (Biolegend, 423114) and incubated at room temperature for 20 minutes. After incubation, the cells were added with staining buffer (2% FBS+PBS) to stop staining, centrifuged at 350×g to remove the supernatant, washed twice and resuspended with staining buffer to a density of 2×10⁶ cells/mL. The cells were plated into a 96-well plate (50 μL of cell suspension per well) for further use. The antibodies were diluted from the highest concentration of 46 nM (two-fold concentration) with staining buffer by 3.3-fold serial dilution. The diluted antibodies were added to the well containing 50 μL of cell suspension. The plate was placed on a microplate shaker at 400 rpm for 1 minute to fully mix the antibodies and cells, and then incubated at 4° C. for 30 minutes. After the incubation, the cells were washed twice with staining buffer (200 μL per well) and centrifuged at 350×g for 5 minutes to discard the supernatant. The PE goat anti-human IgG Fc antibody (ebioscience, 12-4998-82) was diluted 250 times with staining buffer, added into the washed wells (100 μL per well), mixed well, and stained at 4° C. for 30 minutes. After staining, the cells were washed twice with staining buffer, finally resuspended with 200 μL staining buffer and analyzed by flow cytometry (BD, Canto II). The stronger the signal, the stronger the ability of the antibodies binds to PVRIG. An antibody binding curve was drawn with concentration of antibodies as the abscissa and the corresponding Mean Fluorescence Intensity (MFI) as the ordinate. The AUC value of the curve was calculated by using a Four Parameter Logistic Fit (GraphPadPrism9).

[2] = target: T2, full-length human TIGIT on CHO-K1 cells …; experiment: FACS, CHO-K1 human TIGIT low expression strain
Protocol: The collected cells were washed once with PBS (Hyclone, Cat NO. SH30256), resuspended to 2×10⁵/50 μL with 1% BSA-PBS. The antibodies were diluted to 80 nM with 1% BSA-PBS (diluted by 3-fold serial dilution for 12 concentration points). The 50 μL cells were then mixed with 50 μL diluted antibodies, and then incubated at 4° C. for 60 minutes. […] After washing twice with PBS, the cell samples were resuspended with 1% BSA-PBS, 100 μL/well and then analyzed by flow cytometry (BD, Canto II).

[3] = target: T3, human TIGIT ECD-mFc (fusion protein of …); experiment: FACS, competition: hTIGIT ECD-mFc to CHO-K1 CD155
Protocol: The collected CHO-K1 CD155 cells were washed once with PBS (Hyclone, CAT #SH30256) and resuspended to 2×10⁵/40 μL with 1% BSA-PBS. The tested antibodies were diluted to 600 nM with 1% BSA-PBS (diluted by 2.5-fold serial dilution for 12 concentration points). The TIGIT ECD-mFc was diluted with 1% BSA-PBS to 6 μg/mL. The 40 μL cells were then mixed with 40 μL diluted antibodies and 40 μL diluted TIGIT ECD-mFc, and then incubated at 4° C. for 60 minutes. […] The cell samples were washed twice with PBS, resuspended to 100 μL/well with 1% BSA-PBS and then analyzed by flow cytometry (BD, Canto II).

Binder | EC50 (read off the curve) [1] [pM] | EC50 (read off the curve) [2] [pM] | IC50 [3] [pM]
PVRIG-A105 (VHH, tested as VHH-hinge-CH2-CH3 (human IgG1-Fc); not shown: human IgG1 hinge-CH2-CH3) VHH: EVQLVESGGGLVQAGGSLRLSCAASGRTFDRHTMTWFRQAPGKEREFVATASRIPGDTYYSHSVKGRFTISRDNAKNTVYLQLNNLKPEDTAVYYCAATSAYCSEVDCYEKGSWYDNWGQGIQVTVSS | ~400 | – | –
RG6058-hIgG1 (antibody, V domains shown, human IgG1 format by its name; also called Roche RG6058; control antibody RG6058) VH: EVQLQQSGPGLVKPSQTLSLTCAISGDSVSSNSAAWNWIRQSPSRGLEWLGKTYYRFKWYSDYAVSVKGRITINPDTSKNQFSLQLNSVTPEDTAVFYCTRESTTYDLLAGPFDYWGQGTLVTVSS VL: not shown | – | ~400 | 566
